Earlier results in patent US9506909B2, “Homoarginine as a biomarker for the risk of mortality” (Synlab Medizinisches Versorgungszentrum Heidelberg GmbH, priority 2010, dated 2016).

Columns and labels:
[1] = storage for 48 hours at room temperature or at 40 Celsius

For “BNP: active natriuretic hormone, 32 amino acids, cleaved from proBNP”, the “concentration loss on storage” value [1] is listed as “at least 20%” and the in-vivo half-life (in vivo) is listed as 0.333 h.

B1: NTproBNP: N-terminal pro peptide of proBNP, 76 amino acids, inactive counterpart of BNP (protein, UniProt P16860 27-102, looked up)
NT-proBNP: HPLGSPGSASDLETSGLQEQRNHLQGKLSELQVEQTSLEPLQESPRPTGVWKSREVATEGIRGHRKMVLYTLRAPR
modifications: NT-proBNP
For B1, the “in-vivo half-life, longer than that of BNP” value (printed as the difference to the half-life of BNP) is given as 2 h.
